Test results as given in US20250123292.

Target: recombinant human endorepellin/perlecan (R&Dsystems, catalog Number: 2364-ER-050), intact, P98160

B1: Recombinant Human BMP-1/PCP (R&Dsystems, catalog Number: 1927-ZN) (protein)
chain: AATSRPERVWPDGVIPFVIGGNFTGSQRAVFRQAMRHWEKHTCVTFLERTDEDSYIVFTYRPCGCCSYVGRRGGGPQAISIGKNCDKFGIVVHELGHVVGFWHEHTRPDRDRHVSIVRENIQPGQEYNFLKMEPQEVESLGETYDFDSIMHYARNTFSRGIFLDTIVPKYEVNGVKPPIGQRTRLSKGDIAQARKLYKCPACGETLQDSTGNFSSPEYPNGYSAHMHCVWRISVTPGEKIILNFTSLDLYRSRLCWYDYVEVRDGFWRKAPLRGRFCGSKLPEPIVSTDSRLWVEFRSSSNWVGKGFFAVYEAICGGDVKKDYGHIQSPNYPDDYRPSKVCIWRIQVSEGFHVGLTFQSFEIERHDSCAYDYLEVRDGHSESSTLIGRYCGYEKPDDIKSTSSRLWLKFVSDGSINKAGFAVNFFKEVDECSRPNRGGCEQRCLNTLGSYKCSCDPGYELAPDKRRCEAACGGFLTKLNGSITSPGWPKEYPPNKNCIWQLVAPTQYRISLQFDFFETEGNDVCKYDFVEVRSGLTADSKLHGKFCGSEKPEVITSQYNNMRVEFKSDNTVSKKGFKAHFFSEKRPALQPPRGRPHQLKFRVQKRNRTPQ
  measured levels of LG3 (LG3 ELISA) after in vitro cleavage, 24 hours at 37 C: LG3 was detected only in the endorepellin with BMP-1 sample
